Experimental data from patent US20060040861A1, “Method of treating, preventing, and diagnosing prostate cancer” (priority 2004, published 2006).

System: JNK
Assay: In vitro JNK assay on lysates of treated C2C12 myoblasts
Format: cell-based, murine
Details: 1.0 μg/ml
Experimental: Seventy-percent confluent cells were deprived of serum for 24 hours, followed by treatment with 1 μg/ml f- or g-adiponectin or 10 μg/ml anisomycin for indicated periods. After being rinsed with cold phosphate-buffered saline, cells were harvested using a scraper and collected by centrifugation at 700×g for 10 minutes at 4° C. The cell pellets were then homogenized in cell lysis buffer (20 mM HEPES, pH 7.9, 300 mM NaCl, 1 mM Na3VO4, 1 μg/ml leupeptin, 5 μg/ml aprotinin, 1 μg/ml pepstatin, and 1 mM phenylmethylsulfonyl fluoride) and rocked gently for 30 minutes at 4° C. The homogenates were centrifuged at 15,000×g for 5 minutes at 4° C., and the supernatants were saved as cell lysates and stored at −80° C. until use.
Using the stress-activated protein kinase/JNK assay kit, JNK activity was assessed with a fusion protein of the c-Jun NH2 terminus (amino acids 1 to 89) and glutathione S-transferase as a substrate according to the manufacture's instructions with some modifications as reported before (M. Onuma, et al., supra, 2003). […] The substrate fusion protein was separated by SDS-polyacrylamide gel electrophoresis, and its phosphorylation by JNK was determined by Western blot analysis using anti-phospho-c-Jun (Ser-63) polyclonal antibody. To normalize sample variations, JNK protein levels were also determined by Western blot analysis using anti-JNK antibody.

B1: f-adiponectin: Recombinant human full-length (non-proteolytic) adiponectin, about 30-kDa polypeptide; lot mainly HMW form (protein, UniProt Q15848 1-244, looked up)
chain: MLLLGAVLLLLALPGHDQETTTQGPGVLLPLPKGACTGWMAGIPGHPGHNGAPGRDGRDGTPGEKGEKGDPGLIGPKGDIGETGVPGAEGPRGFPGIQGRKGEPGEGAYVYRSAFSVGLETYVTIPNMPIRFTKIFYNQQNHYDGSTGKFHCNIPGLYYFAYHITVYMKDVKVSLFKKDKAMLFTYDQYQENNVDQASGSVLLHLEVGDQVWLQVYGEGERNGLYADNDNDSTFTGFLLYHDTN
modifications: full-length
notes: Recombinant human full-length (non-proteolytic) adiponectin, about 30-kDa polypeptide; lot mainly HMW form
time of peak JNK activation after addition: 10 min | JNK activation (up to 60 minutes): further stimulated JNK activation
